In this data set the target is T1, RIG-I (recombinant) (human? (GeneID 23586), UniProt O95786 1-925).
T1 sequence: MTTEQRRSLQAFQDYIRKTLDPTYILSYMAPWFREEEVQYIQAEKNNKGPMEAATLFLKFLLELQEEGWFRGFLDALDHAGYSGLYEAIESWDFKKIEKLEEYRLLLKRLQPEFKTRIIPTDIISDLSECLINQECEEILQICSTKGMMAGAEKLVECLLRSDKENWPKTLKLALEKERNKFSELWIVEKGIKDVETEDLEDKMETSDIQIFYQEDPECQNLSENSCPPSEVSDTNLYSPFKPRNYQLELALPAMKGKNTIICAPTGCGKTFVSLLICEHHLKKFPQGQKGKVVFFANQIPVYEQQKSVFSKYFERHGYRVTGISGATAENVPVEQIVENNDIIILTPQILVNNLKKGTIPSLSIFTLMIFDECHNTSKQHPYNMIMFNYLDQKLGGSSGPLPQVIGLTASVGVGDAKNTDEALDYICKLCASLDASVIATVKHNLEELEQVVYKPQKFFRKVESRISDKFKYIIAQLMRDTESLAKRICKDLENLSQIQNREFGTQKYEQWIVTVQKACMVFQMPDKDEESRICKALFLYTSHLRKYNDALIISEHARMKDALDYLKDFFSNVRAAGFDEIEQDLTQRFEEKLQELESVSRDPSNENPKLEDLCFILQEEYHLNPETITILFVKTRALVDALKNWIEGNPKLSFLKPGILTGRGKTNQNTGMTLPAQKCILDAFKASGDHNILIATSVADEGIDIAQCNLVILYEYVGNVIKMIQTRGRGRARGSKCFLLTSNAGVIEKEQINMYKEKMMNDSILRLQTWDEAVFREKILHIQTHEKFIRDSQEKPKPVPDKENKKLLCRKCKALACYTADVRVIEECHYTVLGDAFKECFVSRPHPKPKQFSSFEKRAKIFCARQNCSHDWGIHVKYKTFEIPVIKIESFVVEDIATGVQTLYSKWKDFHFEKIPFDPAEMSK
Briefly: EMSA. For orientation: In EMSA bound probe runs differently from free probe, usually more slowly.

B1: 5'-pppA synthetic 24 bp dsRNA (dsRNA)
RNA 1: AGCAAAAGCAGGGUGACAAAGACA
RNA 2: UGUCUUUGUCACCCUGCUUUUGCU
modifications: 5'-ppp on sense strand only
What is called Kd is the equilibrium constant for the complex coming apart. Turning to B1, the Kd amounted to 0.4 nM.

Values taken from doi:10.1101/2023.12.22.573000.
